Holding throughout (test): cell-based or functional assay
For one test, the target named is human GLP-1 receptor (human, UniProt P43220 24-463).
The target of a further test is human glucagon receptor (human, UniProt P47871 26-477).
A further test addresses T1, human GIP receptor (human, UniProt P48546 22-466).
T1 sequence (looked up): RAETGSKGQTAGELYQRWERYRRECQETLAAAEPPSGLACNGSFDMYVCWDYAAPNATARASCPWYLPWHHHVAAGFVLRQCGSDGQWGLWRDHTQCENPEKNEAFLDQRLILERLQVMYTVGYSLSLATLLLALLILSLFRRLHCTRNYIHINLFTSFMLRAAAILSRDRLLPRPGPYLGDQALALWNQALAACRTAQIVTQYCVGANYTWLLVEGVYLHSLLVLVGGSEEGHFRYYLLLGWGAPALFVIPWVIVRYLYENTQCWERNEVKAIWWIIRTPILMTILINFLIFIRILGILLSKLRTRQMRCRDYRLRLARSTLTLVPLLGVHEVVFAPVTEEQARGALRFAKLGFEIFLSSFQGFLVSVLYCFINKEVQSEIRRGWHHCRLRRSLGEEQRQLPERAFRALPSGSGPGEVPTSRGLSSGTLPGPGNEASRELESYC

In another test the target is T2, mouse GLP-1 receptor (mouse, UniProt O35659 22-463).
T2 sequence (looked up): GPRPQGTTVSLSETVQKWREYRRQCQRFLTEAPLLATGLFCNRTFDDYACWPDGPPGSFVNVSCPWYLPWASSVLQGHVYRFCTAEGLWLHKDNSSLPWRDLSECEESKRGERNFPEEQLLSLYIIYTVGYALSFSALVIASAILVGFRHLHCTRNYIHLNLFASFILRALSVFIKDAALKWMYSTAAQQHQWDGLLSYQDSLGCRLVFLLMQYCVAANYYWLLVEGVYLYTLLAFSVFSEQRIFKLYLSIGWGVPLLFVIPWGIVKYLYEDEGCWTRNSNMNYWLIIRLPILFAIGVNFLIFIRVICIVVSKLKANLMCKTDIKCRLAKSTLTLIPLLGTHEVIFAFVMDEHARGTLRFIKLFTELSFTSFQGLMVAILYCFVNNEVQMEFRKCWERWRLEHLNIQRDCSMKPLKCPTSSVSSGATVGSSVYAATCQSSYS

The target of another test is T3, mouse GIP receptor (mouse, UniProt Q0P543 19-460).
T3 sequence (looked up): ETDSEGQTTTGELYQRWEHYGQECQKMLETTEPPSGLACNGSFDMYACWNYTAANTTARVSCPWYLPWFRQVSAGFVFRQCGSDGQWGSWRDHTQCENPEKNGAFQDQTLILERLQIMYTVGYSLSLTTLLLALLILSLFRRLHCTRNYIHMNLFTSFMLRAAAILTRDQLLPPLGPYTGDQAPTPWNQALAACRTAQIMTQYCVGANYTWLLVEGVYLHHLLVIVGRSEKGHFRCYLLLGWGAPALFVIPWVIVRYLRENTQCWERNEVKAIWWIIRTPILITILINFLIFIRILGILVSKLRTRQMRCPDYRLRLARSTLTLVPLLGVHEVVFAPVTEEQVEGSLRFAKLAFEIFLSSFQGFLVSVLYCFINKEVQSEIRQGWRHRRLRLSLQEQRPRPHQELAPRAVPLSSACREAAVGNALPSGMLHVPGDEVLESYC

The target in the next test is T4, rat GLP-1 receptor (rat, UniProt P32301 22-463).
T4 sequence (looked up): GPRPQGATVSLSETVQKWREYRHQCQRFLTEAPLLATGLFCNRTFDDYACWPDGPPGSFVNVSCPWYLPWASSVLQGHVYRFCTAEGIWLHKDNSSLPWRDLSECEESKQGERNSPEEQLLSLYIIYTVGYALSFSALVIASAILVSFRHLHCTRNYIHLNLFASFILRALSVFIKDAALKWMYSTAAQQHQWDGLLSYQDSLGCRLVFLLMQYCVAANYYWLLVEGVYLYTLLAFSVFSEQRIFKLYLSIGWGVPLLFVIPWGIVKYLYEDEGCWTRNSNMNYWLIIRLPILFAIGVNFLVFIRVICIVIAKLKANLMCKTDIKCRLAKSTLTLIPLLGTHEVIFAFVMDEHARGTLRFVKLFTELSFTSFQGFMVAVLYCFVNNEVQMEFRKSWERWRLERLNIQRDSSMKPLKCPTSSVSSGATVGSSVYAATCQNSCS

Another test deals with T5, rat GIP receptor (rat, UniProt P43219 19-455).
T5 sequence (looked up): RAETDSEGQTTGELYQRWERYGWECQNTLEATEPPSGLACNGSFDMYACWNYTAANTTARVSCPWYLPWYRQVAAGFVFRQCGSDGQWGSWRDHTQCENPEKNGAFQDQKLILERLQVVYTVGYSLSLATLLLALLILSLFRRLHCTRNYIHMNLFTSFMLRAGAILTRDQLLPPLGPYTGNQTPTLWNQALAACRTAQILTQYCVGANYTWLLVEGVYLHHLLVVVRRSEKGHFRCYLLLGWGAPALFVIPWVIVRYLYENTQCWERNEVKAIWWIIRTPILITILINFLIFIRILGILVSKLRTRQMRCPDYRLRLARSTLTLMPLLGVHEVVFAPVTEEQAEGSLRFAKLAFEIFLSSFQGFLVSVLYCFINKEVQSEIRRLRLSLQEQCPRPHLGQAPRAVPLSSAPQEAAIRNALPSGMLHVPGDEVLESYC

Consider ten molecules from patent US20160185837A1 (AstraZeneca / MedImmune, published 2016).

B1: IP279 (Fc fusion)
chain: YSEGTFTSDYSKLLEEEAVRLFIEWLVKGPSSGAPPPSGGGGGSGGGGSGGGGSGGGGSATHTCPPC
Take B1: the “cAMP EC50” value with human GLP-1 receptor worked out at 0.1 nM; with human glucagon receptor, 170 nM; in the test with human GIP receptor, 0.01 nM; with mouse GLP-1 receptor, 0.22 nM; with mouse GIP receptor, 43 nM; in the test with rat GLP-1 receptor it was 0.024 nM. Also, the “cAMP EC50” value with rat GIP receptor was found to be 0.097 nM.

B2: IP274 (Fc fusion)
chain: YSEGTFTSDYSKLLEKEAVRLFIEWLLKGPGGGGGSGGGGSGGGGSGGGGSATHTCPPC
For B2, the “cAMP EC50” value with human GLP-1 receptor was determined as 0.36 nM; with human glucagon receptor, 38 nM; with human GIP receptor, 0.017 nM; in the test with mouse GLP-1 receptor, 1.2 nM; with mouse GIP receptor, 1 nM; in the test with rat GLP-1 receptor it was 0.057 nM. For the same molecule, the “cAMP EC50” value with rat GIP receptor worked out at 0.028 nM. For the same molecule, the “cAMP EC50, Batch 2” value turned out to be 0.2 nM with human GLP-1 receptor, 30 nM in the test with human glucagon receptor and 0.014 nM with human GIP receptor.

B3: IP276 (Fc fusion)
chain: YSEGTFTSDYSKLLEEEAVRLFIEWLVKGPGGGGGGGGGGGGGGGGGATHTCPPC
In the case of B3, the “cAMP EC50” value came out at 0.16 nM with human GLP-1 receptor; 1500 nM with human glucagon receptor; 0.013 nM with human GIP receptor; 0.34 nM with mouse GLP-1 receptor; 510 nM with mouse GIP receptor; 0.028 nM in the test with rat GLP-1 receptor. The “cAMP EC50” value with rat GIP receptor came to 0.26 nM.

B4: IP294 (Fc fusion)
chain: YSEGTFTSDYSKLLEEEAVRLFICWLVCGPGGGGGGGGGGGGGGGGGGGGACPPC
In the case of B4, the “cAMP EC50” value was 27 nM with human GLP-1 receptor; above 6810 nM with human glucagon receptor; 1.3 nM with human GIP receptor; 350 nM in the test with mouse GLP-1 receptor; above 6800 nM in the test with mouse GIP receptor; 7.1 nM with rat GLP-1 receptor. In the test with rat GIP receptor, the “cAMP EC50” value was determined as 100 nM.

B5: IP293 (Fc fusion)
chain: YSEGTFTSDYSKLLEEEAVRCFIECLVKGPGGGGGGGGGGGGGGGGGGGGACPPC
On to B5, for which the “cAMP EC50” value with human GLP-1 receptor is 1.6 nM; with human glucagon receptor it was above 13000 nM; with human GIP receptor it was 1.2 nM; with mouse GLP-1 receptor, 13 nM; with mouse GIP receptor, 7800 nM; with rat GLP-1 receptor, 0.45 nM. In addition, in the test with rat GIP receptor, the “cAMP EC50” value turned out to be 16 nM.

B6: IP291 (Fc fusion)
chain: YSEGTFTSDYSKLLEEECVRLFIEWLVKGGPGGGAPPPGCGGGGGGGGGGGGGGGGGACPPC
For the molecule B6, the “cAMP EC50” value is 12 nM with human GLP-1 receptor; above 10600 nM with human glucagon receptor; 0.12 nM in the test with human GIP receptor; 120 nM with mouse GLP-1 receptor; 680 nM with mouse GIP receptor; 3 nM with rat GLP-1 receptor. In addition, the “cAMP EC50” value in the test with rat GIP receptor amounted to 1.4 nM.

B7: IP292 (Fc fusion)
chain: YSEGTFTSDYSKLLEEEAVRCFIEWLVKGGPGGGAPPCGGGGGGGGGGGGGGGGGGGACPPC
Regarding B7, the “cAMP EC50” value with human GLP-1 receptor was 0.26 nM; with human glucagon receptor, above 13600 nM; in the test with human GIP receptor, 0.043 nM; with mouse GLP-1 receptor, 1.2 nM; with mouse GIP receptor, 66 nM; with rat GLP-1 receptor, 0.037 nM. Further, the “cAMP EC50” value in the test with rat GIP receptor is 0.29 nM. The “cAMP EC50, Batch 2” value in the test with human GLP-1 receptor is 1.1 nM; with human glucagon receptor, above 14900 nM; with human GIP receptor it was 0.046 nM; with mouse GLP-1 receptor, 1.32 nM; in the test with mouse GIP receptor, 55.4 nM; with rat GLP-1 receptor it was 0.0432 nM. In addition, in the test with rat GIP receptor, the “cAMP EC50, Batch 2” value came to 0.186 nM.

B8: IP278 (Fc fusion)
chain: YSEGTFTSDYSKLLEEEAVRLFIEWLVKGPPSSGAPPPSGGGGGSGGGGSGGGGSGGGGSATHTCPPC
For the molecule B8, the “cAMP EC50” value with human GLP-1 receptor worked out at 0.13 nM; in the test with human glucagon receptor, 78 nM; with human GIP receptor, 0.011 nM; with mouse GLP-1 receptor, 0.32 nM; in the test with mouse GIP receptor it was 85 nM; in the test with rat GLP-1 receptor, 0.026 nM. In addition, in the test with rat GIP receptor, the “cAMP EC50” value is 0.13 nM.

B9: IP280 (Fc fusion)
chain: YSEGTFTSDYSKLLEEEAVRLFIEWLVKGGPSSGAPPPSGGGGGSGGGGSGGGGSGGGGSATHTCPPC
As for B9, the “cAMP EC50” value with human GLP-1 receptor was found to be 0.077 nM; with human glucagon receptor it was 520 nM; in the test with human GIP receptor, 0.0056 nM; in the test with mouse GLP-1 receptor it was 0.21 nM; with mouse GIP receptor, 8.8 nM; in the test with rat GLP-1 receptor, 0.027 nM. Moreover, in the test with rat GIP receptor, the “cAMP EC50” value stood at 0.046 nM. For the same molecule, the “cAMP EC50, Batch 2” value is 0.058 nM with human GLP-1 receptor, 270 nM in the test with human glucagon receptor and 0.0045 nM in the test with human GIP receptor. Further, the entries for the “cAMP EC50, Batch 3” value with human GLP-1 receptor, in the test with human glucagon receptor and with human GIP receptor were 0.08 nM, 280 nM and 0.0064 nM, respectively.

B10: IP295 (Fc fusion)
chain: YSEGTFTSDYSKLLEEEAVRLFIEWLLAGGPSSGAPPPSGGGGGSGGGGSGGGGSGGGGSATHTCPPC
Consider B10, for which the “cAMP EC50” value with human GLP-1 receptor is 0.091 nM; in the test with human glucagon receptor, 41 nM; with human GIP receptor, 0.0043 nM; with mouse GLP-1 receptor, 0.35 nM; in the test with mouse GIP receptor it was 0.66 nM; with rat GLP-1 receptor, 0.023 nM. Besides, the “cAMP EC50” value with rat GIP receptor turned out to be 0.041 nM. The “cAMP EC50, Batch 2” value was 0.14 nM with human GLP-1 receptor; 32 nM in the test with human glucagon receptor; 0.012 nM with human GIP receptor; 0.241 nM with mouse GLP-1 receptor; 1.2 nM with mouse GIP receptor; 0.018 nM in the test with rat GLP-1 receptor. Further, the “cAMP EC50, Batch 2” value in the test with rat GIP receptor turned out to be 0.0658 nM. The “cAMP EC50, Batch 3” value with human GLP-1 receptor is 0.15 nM; with human glucagon receptor, 23 nM; with human GIP receptor, 0.0086 nM; with mouse GLP-1 receptor, 0.34 nM; in the test with mouse GIP receptor, 0.571 nM; with rat GLP-1 receptor, 0.0286 nM. The “cAMP EC50, Batch 3” value with rat GIP receptor was found to be 0.025 nM.
